Publication PMC11079029, “Intramolecular autoinhibition regulates the selectivity of PRPF40A tandem WW domains for proline-rich motifs” (Nature Communications, 2024)
“And” between values parts separate entries of the source, which are not always exact repeats. Equal entries are not always repeated.

B1: GB1-tagged SF1 Pro D (594-639) (domain or fragment, UniProt Q15637 594-639, looked up)
chain: GMMYAPPPPPPPPMDPSNFVTMMGMGVAGMPPFGMPPAPPPPPPQN
notes: SF1 residues 594-639; also called the very C-terminal region; source: E. coli BL21(DE3), purified (Ni-NTA, SEC), GB1 tag kept; not shown: GB1, N-terminal, kept
B2: GB1-polyproline peptide P19 (peptide)
chain: GAMSGSPPPPPPPPPPPPPPPPPPPSGSN
notes: common N-terminal residues after the TEV site (TEVsite-GAMSGS-peptide-SGSN); 19 consecutive prolines; common C-terminal residues; pET24 vector with 6xHis, GB1 and TEV site as N-terminal cassette, not cleaved; also called polyproline length 19; source: E. coli BL21(DE3), purified (Ni-NTA, SEC); not shown: GB1, N-terminal, kept
B3: GB1-polyproline peptide P22 (peptide)
chain: GAMSGSPPPPPPPPPPPPPPPPPPPPPPSGSN
notes: common N-terminal residues after the TEV site (TEVsite-GAMSGS-peptide-SGSN); 22 consecutive prolines; common C-terminal residues; pET24 vector with 6xHis, GB1 and TEV site as N-terminal cassette, not cleaved; also called polyproline length 22; source: E. coli BL21(DE3), purified (Ni-NTA, SEC); not shown: GB1, N-terminal, kept
B4: GB1-polyproline peptide P25 (peptide)
chain: GAMSGSPPPPPPPPPPPPPPPPPPPPPPPPPSGSN
notes: common N-terminal residues after the TEV site (TEVsite-GAMSGS-peptide-SGSN); 25 consecutive prolines; common C-terminal residues; pET24 vector with 6xHis, GB1 and TEV site as N-terminal cassette, not cleaved; also called polyproline length 25; source: E. coli BL21(DE3), purified (Ni-NTA, SEC); not shown: GB1, N-terminal, kept
B5: GB1-polyproline peptide P29 (peptide)
chain: GAMSGSPPPPPPPPPPPPPPPPPPPPPPPPPPPPPSGSN
notes: common N-terminal residues after the TEV site (TEVsite-GAMSGS-peptide-SGSN); 29 consecutive prolines; common C-terminal residues; pET24 vector with 6xHis, GB1 and TEV site as N-terminal cassette, not cleaved; also called polyproline length 29; source: E. coli BL21(DE3), purified (Ni-NTA, SEC); not shown: GB1, N-terminal, kept
B6: GB1-polyproline peptide P8 (peptide)
chain: GAMSGSPPPPPPPPSGSN
notes: common N-terminal residues after the TEV site (TEVsite-GAMSGS-peptide-SGSN); 8 consecutive prolines; common C-terminal residues; pET24 vector with 6xHis, GB1 and TEV site as N-terminal cassette, not cleaved; also called polyproline length 8; source: E. coli BL21(DE3), purified (Ni-NTA, SEC); not shown: GB1, N-terminal, kept
B7: GB1-polyproline peptide P13 (peptide)
chain: GAMSGSPPPPPPPPPPPPPSGSN
notes: common N-terminal residues after the TEV site (TEVsite-GAMSGS-peptide-SGSN); 13 consecutive prolines; common C-terminal residues; pET24 vector with 6xHis, GB1 and TEV site as N-terminal cassette, not cleaved; also called polyproline length 13; source: E. coli BL21(DE3), purified (Ni-NTA, SEC); not shown: GB1, N-terminal, kept
B8: GB1-SF1 Pro A (residues 410-468) (domain or fragment, UniProt Q15637 410-468, looked up)
chain: GHPMQHNPNGPPPPWMQPPPPPMNQGPHPPGHHGPPPMDQYLGSTPVGSGVYRLHQGKG
notes: SF1 (splicing factor 1) residues 410-468 of the proline-rich C-terminal region; pET24 vector with 6xHis, GB1 and TEV site as N-terminal cassette, not cleaved; source: E. coli BL21(DE3), purified (Ni-NTA, SEC); not shown: GB1, N-terminal, kept
B9: GB1-SF1 Pro B (residues 468-539) (domain or fragment, UniProt Q15637 468-539, looked up)
chain: GMMPPPPMGMMPPPPPPPSGQPPPPPSGPLPPWQQQQQQPPPPPPPSSSMASSTPLPWQQNTTTTTTSAGTG
notes: SF1 (splicing factor 1) residues 468-539 of the proline-rich C-terminal region; pET24 vector with 6xHis, GB1 and TEV site as N-terminal cassette, not cleaved; source: E. coli BL21(DE3), purified (Ni-NTA, SEC); not shown: GB1, N-terminal, kept
B10: GB1-SF1 Pro C (residues 539-594) (domain or fragment, UniProt Q15637 539-594, looked up)
chain: GSIPPWQQQQAAAAASPGAPQMQGNPTMVPLPPGVQPPLPPGAPPPPPPPPPGSAG
notes: SF1 (splicing factor 1) residues 539-594; pET24 vector with 6xHis, GB1 and TEV site as N-terminal cassette, not cleaved; source: E. coli BL21(DE3), purified (Ni-NTA, SEC); not shown: GB1, N-terminal, kept
B11: GB1-SF1 Pro D (residues 594-639) (domain or fragment, UniProt Q15637 594-639, looked up)
chain: B1 chain
notes: SF1 (splicing factor 1) residues 594-639, the very C-terminal region; pET24 vector with 6xHis, GB1 and TEV site as N-terminal cassette, not cleaved; source: E. coli BL21(DE3), purified (Ni-NTA, SEC); not shown: GB1, N-terminal, kept
B12: GB1-SF1 Pro BC (residues 468-594) (domain or fragment, UniProt Q15637 468-594, looked up)
chain: GMMPPPPMGMMPPPPPPPSGQPPPPPSGPLPPWQQQQQQPPPPPPPSSSMASSTPLPWQQNTTTTTTSAGTGSIPPWQQQQAAAAASPGAPQMQGNPTMVPLPPGVQPPLPPGAPPPPPPPPPGSAG
notes: SF1 (splicing factor 1) residues 468-594; pET24 vector with 6xHis, GB1 and TEV site as N-terminal cassette, not cleaved; source: E. coli BL21(DE3), purified (Ni-NTA, SEC); not shown: GB1, N-terminal, kept
B13: GB1-SF1 Pro CD (residues 539-639) (domain or fragment, UniProt Q15637 539-639, looked up)
chain: GSIPPWQQQQAAAAASPGAPQMQGNPTMVPLPPGVQPPLPPGAPPPPPPPPPGSAGMMYAPPPPPPPPMDPSNFVTMMGMGVAGMPPFGMPPAPPPPPPQN
notes: SF1 (splicing factor 1) residues 539-639; pET24 vector with 6xHis, GB1 and TEV site as N-terminal cassette, not cleaved; source: E. coli BL21(DE3), purified (Ni-NTA, SEC); not shown: GB1, N-terminal, kept
B14: GB1-SF1 Pro BCD (residues 468-639) (domain or fragment, UniProt Q15637 468-639, looked up)
chain: GMMPPPPMGMMPPPPPPPSGQPPPPPSGPLPPWQQQQQQPPPPPPPSSSMASSTPLPWQQNTTTTTTSAGTGSIPPWQQQQAAAAASPGAPQMQGNPTMVPLPPGVQPPLPPGAPPPPPPPPPGSAGMMYAPPPPPPPPMDPSNFVTMMGMGVAGMPPFGMPPAPPPPPPQN
notes: SF1 (splicing factor 1) residues 468-639; pET24 vector with 6xHis, GB1 and TEV site as N-terminal cassette, not cleaved; source: E. coli BL21(DE3), purified (Ni-NTA, SEC); not shown: GB1, N-terminal, kept
B15: GB1-SF1 Pro ABCD (residues 410-639) (domain or fragment, UniProt Q15637 410-639, looked up)
chain: GHPMQHNPNGPPPPWMQPPPPPMNQGPHPPGHHGPPPMDQYLGSTPVGSGVYRLHQGKGMMPPPPMGMMPPPPPPPSGQPPPPPSGPLPPWQQQQQQPPPPPPPSSSMASSTPLPWQQNTTTTTTSAGTGSIPPWQQQQAAAAASPGAPQMQGNPTMVPLPPGVQPPLPPGAPPPPPPPPPGSAGMMYAPPPPPPPPMDPSNFVTMMGMGVAGMPPFGMPPAPPPPPPQN
notes: SF1 (splicing factor 1) residues 410-639, the complete proline-rich C-terminal region; pET24 vector with 6xHis, GB1 and TEV site as N-terminal cassette, not cleaved; also called complete C-terminal region of SF1; source: E. coli BL21(DE3), purified (Ni-NTA, SEC); not shown: GB1, N-terminal, kept
B16: GB1-SF3A1 Middle Pro (residues 364-413) (domain or fragment, UniProt Q15459 364-413, looked up)
chain: EGQKVPPPPETPMPPPLPPTPDQVIVRKDYDPKASKPLPPAPAPDEYLVS
notes: SF3A1 residues 364-413, proline-rich region with a PPLP motif; pET24 vector with 6xHis, GB1 and TEV site as N-terminal cassette, not cleaved; also called SF3A1 region (364-413); source: E. coli BL21(DE3), purified (Ni-NTA, SEC); not shown: GB1, N-terminal, kept
B17: GB1-SF3A1 C-ter Pro (residues 552-683) (domain or fragment, UniProt Q15459 552-683, looked up)
chain: EIPQQPPPPSSATNIPSSAPPITSVPRPPTMPPPVRTTVVSAVPVMPRPPMASVVRLPPGSVIAPMPPIIHAPRINVVPMPPSAPPIMAPRPPPMIVPTAFVPAPPVAPVPAPAPMPPVHPPPPMEDEPTSK
notes: pET24 vector with 6xHis, GB1 and TEV site as N-terminal cassette, not cleaved; source: E. coli BL21(DE3), purified (Ni-NTA, SEC); not shown: GB1, N-terminal, kept

Each binder was assayed against T1, PRPF40A WW12 (tandem WW domains, residues 141-236) (human, UniProt O75400 141-236) (assay: ITC; GB1-tagged SF1/SF3A1 constructs in the syringe and the WW tandem in the cell; 25 °C, 20 mM sodium phosphate pH 6.5, 100 mM NaCl; one-site model; apparent affinities). Settings: both partners purified.
T1 construct: pETM11 vector, NcoI/KpnI; 15N or 13C,15N labelled for NMR; also called PRPF40A WW tandem; PRPF40A tandem WW domains; source: E. coli BL21(DE3), purified (Ni-NTA, TEV, reverse Ni-NTA, SEC); not shown: His6, N-terminal, cleaved
For B1, the Kd was ~10 µM.

Each binder was assayed against T2, PRPF40A WW12 (tandem WW domains, residues 141-236) (human, UniProt O75400 141-236) (assay: ITC; MicroCal PEAQ-ITC, 25 °C, 20 mM sodium phosphate pH 6.5, 100 mM NaCl; GB1-polyproline peptides in the cell, WW12 in the syringe (N sites >1: more than one WW tandem on one peptide); one-site model; apparent). Settings: both partners purified.
T2 construct: pETM11 vector (NcoI/KpnI); also called PRPF40A WW tandem; isolated WW domains; source: E. coli BL21(DE3), purified (Ni-NTA, TEV cleavage, reverse Ni-NTA, SEC); not shown: His6, N-terminal, cleaved
B2 was tested, and the Kd was 7.02 µM and 6.5 µM and 6.76 µM.
For B3, the Kd was 8.84 µM and 9.73 µM and 9.29 µM.
For B4, the Kd was 10.5 µM and 11 µM and 10.8 µM.
For B5, the Kd was 7.3 µM and 11 µM and 9.15 µM.
For B6, the Kd was > 50 µM.
In the case of B7, the Kd is reported as 7.58 µM and 10.6 µM and 7.45 µM and 8.54 µM.

Each binder was assayed against T2, PRPF40A WW12 (tandem WW domains, …) (assay: ITC; MicroCal PEAQ-ITC, 25 °C, 20 mM sodium phosphate pH 6.5, 100 mM NaCl; GB1-tagged SF1/SF3A1 constructs in the syringe, WW12 in the cell (N sites <1: more than one WW tandem on one construct); one-site model; apparent). Settings: both partners purified.
B8 was tested, and the Kd was 24.8 µM and 25.4 µM and 25.1 µM and the “stoichiometry N” value was 0.97 and 1 and 0.99.
With B9 the Kd was 15.7 µM and 16.1 µM and 20.6 µM and the “stoichiometry N” value was 1.3 and 1.15.
In the case of B10, the Kd is reported as 2.1 µM and 1.94 µM and 2.02 µM and the “stoichiometry N” value is reported as 0.87 and 0.88.
For B11, the Kd was 10.3 µM and 9.94 µM and 10.1 µM and the “stoichiometry N” value was 0.84 and 0.9 and 0.87.
For B12, the “stoichiometry N” value was 0.5 and 0.6 and 0.53.
With B13 the “stoichiometry N” value was 0.42 and 0.38 and 0.36 and 0.39.
For B14, the “stoichiometry N” value was 0.3 and 0.26 and 0.28.
In the case of B15, the “stoichiometry N” value is reported as 0.33 and 0.23 and 0.28.
In the case of B16, the Kd is reported as 8.1 µM and 9.6 µM and 8.86 µM and the “stoichiometry N” value is reported as 0.7 and 0.42 and 0.56.
With B17 the “stoichiometry N” value was 0.25 and 0.28 and 0.27.
